How the values were obtained:
[1] = test system: HeLa Kyoto; experiment: solubility in G1/S (NP-40 vs SDS abundance) (log2 ratio); higher = more soluble; details: cell cycle stage: G1/S
[2] = test system: HeLa Kyoto; experiment: solubility change mitosis vs G1/S (difference of NP-40 vs SDS log2 ratios) (log2 ratio difference); higher = more soluble in mitosis
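For solubility change mitosis vs G1/S (difference of NP-40 vs SDS log2 ratios) in this document: synchronized HeLa Kyoto cells (double thymidine block for G1/S, nocodazole release for mitosis), protein amounts in NP-40 versus SDS lysates quantified by mass spectrometry, three biological replicates.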
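For solubility in G1/S (NP-40 vs SDS abundance) in this document: HeLa Kyoto cells arrested at G1/S by double thymidine block, proteins quantified by TMT10plex mass spectrometry in mild NP-40 versus SDS extracts, three biological replicates.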

MSGGLAPSKSTVYVSNLPFSLTNNDLYRIFSKYGKVVKVTIMKDKDTRKSKGVAFILFLDKDSAQNCTRAINNKQLFGRVIKASIAIDNGRAAEFIRRRNYFDKSKCYECGESGHLSYACPKNMLGEREPPKKKEKKKKKKAPEPEEEIEEVEESEDEGEDPALDSLSQAIAFQQAKIEEEQKKWKPSSGVPSTSDDSRRPRIKKSTYFSDEEELSD [ZCRB1]
solubility in G1/S (log2) [1]: 0.0915
solubility change mitosis (log2) [2]: 0.122

MSGSCAAPGPGSGSSPAACRFAHYFVLCGIDADSGLEPDELAGENFDQSPLRRTFKSKVLAHYPQNIEWNPFDQDAVNMLCMPKGLSFRTQTDNKDPQFHSFIITREDGSRTYGFVLTFYEEVTSKQICTAMQTLYQMHNAEHYSSVYASSSCSMDSLASSLDEGDTTSLLKLQRYNSYDISRDTLYVSKSICLITPLPFMQACKKFLIQLYKAVTSQQPPPLPLESYIHNILYEVPLPPPGRSLKFYGVYEPVICQRPGPSELPLSDYPLREAFELLGLENLVQVFTCVLLEMQILLYSQDYQRLMTVAEGITTLLFPFQWQHVYVPILPASLLHFLDAPVPYLMGLQSKEGTDRSKLELPQEANLCFVDIDNHFIELPEEFPQFPNKVDFIQELSEVLVQFGIPPEGSLHCSESTSKLKNMVLKDLVNDKKNGNVCTNNISMYELLKGNETIARLQALAKRTGVAVEKMDLSASLGEKDKDLKLHCEEAELRDYQLNVQLREVFANRFTQMFADYEAFVIQTAQDMESWLTNREQMQNFDKASFLSDQPEPYLPFLSRFIETQMFATFIDNKIMSQWEEKDPLLRVFDTRIDKIRLYNVRAPTLRTSIYQKCSTLKEAAQSIEQRLMKMDHTAIHPHLLDMKIGQGKYEQGFFPKLQSDVLATGPTSNNRWVSRSATAQRRKERLRQHSEHVGLDNDLREKYMQEARSLGKNLRQPKLSDLSPAVIAQTNCKFVEGLLKECRMKTKRMLVEKMGHEAVELGHGEANITGLEENTLIASLCDLLERIWSHGLQVKQGKSALWSHLIQFQDREEKQEHLAESPVALGPERRKSDSGVMLPTLRVSLIQDMRHIQNMSEIKTDVGRARAWIRLSLEKKLLSQHLKQLLSNQPLTKKLYKRYAFLRCEEEREQFLYHLLSLNAVDYFCFTSVFTTIMIPYRSVIIPIKKLSNAIITSNPWICVSGELGDTGVMQIPKNLLEMTFECQNLGKLTTVQIGHDNSGLLAKWLVDCVMVRNEITGHTYRFPCGRWLGKGIDDGSLERILIGELMTSASDEDLVKQCRTPPQQKSPTTARRLSITSLTGKNNKPNAGQIQEGIGEAVNNIVKHFHKPEKERGSLTVLLCGENGLVAALEQVFHHGFKSARIFHKNVFIWDFIEKVVAYFETTDQILDNEDDVLIQKSSCKTFCHYVNAINTAPRNIGKDGKFQILVCLGTRDRLLPQWIPLLAECPAITRMYEESALLRDRMTVNSLIRILQTIQDFTIVLEGSLIKGVDV [DENND5B]
solubility in G1/S (log2) [1]: -0.149
solubility change mitosis (log2) [2]: -0.179

MSGSHTPACGPFSALTPSIWPQEILAKYTQKEESAEQPEFYYDEFGFRVYKEEGDEPGSSLLANSPLMEDAPQRLRWQAHLEFTHNHDVGDLTWDKIAVSLPRSEKLRSLVLAGIPHGMRPQLWMRLSGALQKKRNSELSYREIVKNSSNDETIAAKQIEKDLLRTMPSNACFASMGSIGVPRLRRVLRALAWLYPEIGYCQGTGMVAACLLLFLEEEDAFWMMSAIIEDLLPASYFSTTLLGVQTDQRVLRHLIVQYLPRLDKLLQEHDIELSLITLHWFLTAFASVVDIKLLLRIWDLFFYEGSRVLFQLTLGMLHLKEEELIQSENSASIFNTLSDIPSQMEDAELLLGVAMRLAGSLTDVAVETQRRKHLAYLIADQGQLLGAGTLTNLSQVVRRRTQRRKSTITALLFGEDDLEALKAKNIKQTELVADLREAILRVARHFQCTDPKNCSVELTPDYSMESHQRDHENYVACSRSHRRRAKALLDFERHDDDELGFRKNDIITIVSQKDEHCWVGELNGLRGWFPAKFVEVLDERSKEYSIAGDDSVTEGVTDLVRGTLCPALKALFEHGLKKPSLLGGACHPWLFIEEAAGREVERDFASVYSRLVLCKTFRLDEDGKVLTPEELLYRAVQSVNVTHDAVHAQMDVKLRSLICVGLNEQVLHLWLEVLCSSLPTVEKWYQPWSFLRSPGWVQIKCELRVLCCFAFSLSQDWELPAKREAQQPLKEGVRDMLVKHHLFSWDVDG [SGSM3]
solubility in G1/S (log2) [1]: -0.177
solubility change mitosis (log2) [2]: 0.011

MSKQQPTQFINPETPGYVGFANLPNQVHRKSVKKGFEFTLMVVGESGLGKSTLINSLFLTDLYPERVIPGAAEKIERTVQIEASTVEIEERGVKLRLTVVDTPGYGDAINCRDCFKTIISYIDEQFERYLHDESGLNRRHIIDNRVHCCFYFISPFGHGLKPLDVAFMKAIHNKVNIVPVIAKADTLTLKERERLKKRILDEIEEHNIKIYHLPDAESDEDEDFKEQTRLLKASIPFSVVGSNQLIEAKGKKVRGRLYPWGVVEVENPEHNDFLKLRTMLITHMQDLQEVTQDLHYENFRSERLKRGGRKVENEDMNKDQILLEKEAELRRMQEMIARMQAQMQMQMQGGDGDGGALGHHV [SEPT2]
solubility in G1/S (log2) [1]: 0.276
solubility change mitosis (log2) [2]: -0.0125

MSLPLTEEQRKKIEENRQKALARRAEKLLAEQHQRTSSGTSIAGNPFQAKQGPSQNFPRESCKPVSHGVIFKQQNLSSSSNADQRPHDSHSFQAKGIWKKPEEMPTACPGHSPRSQMALTGISPPLAQSPPEVPKQQLLSYELGQGHAQASPEIRFTPFANPTHKPLAKPKSSQETPAHSSGQPPRDAKLEAKTAKASPSGQNISYIHSSSESVTPRTEGRLQQKSGSSVQKGVNSQKGKCVRNGDRFQVLIGYNAELIAVFKTLPSKNYDPDTKTWNFSMNDYSALMKAAQSLPTVNLQPLEWAYGSSESPSTSSEGQAGLPSAPSLSFVKGRCMLISRAYFEADISYSQDLIALFKQMDSRRYDVKTRKWSFLLEEHSKLIAKVRCLPQVQLDPLPTTLTLAFASQLKKTSLSLTPDVPEADLSEVDPKLVSNLMPFQRAGVNFAIAKGGRLLLADDMGLGKTIQAICIAAFYRKEWPLLVVVPSSVRFTWEQAFLRWLPSLSPDCINVVVTGKDRLTAGLINIVSFDLLSKLEKQLKTPFKVVIIDESHFLKNSRTARCRAAMPVLKVAKRVILLSGTPAMSRPAELYTQIIAVKPTFFPQFHAFGLRYCDAKRMPWGWDYSGSSNLGELKLLLEEAVMLRRLKSDVLSQLPAKQRKIVVIAPGRINARTRAALDAAAKEMTTKDKTKQQQKDALILFFNRTAEAKIPSVIEYILDLLESGREKFLVFAHHKVVLDAITQELERKHVQHIRIDGSTSSAEREDLCQQFQLSERHAVAVLSITAANMGLTFSSADLVVFAELFWNPGVLIQAEDRVHRIGQTSSVGIHYLVAKGTADDYLWPLIQEKIKVLAEAGLSETNFSEMTESTDYLYKDPKQQKIYDLFQKSFEKEGSDMELLEAAESFDPGSASGTSGSSSQNMGDTLDESSLTASPQKKRRFEFFDNWDSFTSPL [SMARCAL1]
solubility in G1/S (log2) [1]: 0.0557
solubility change mitosis (log2) [2]: 0.0546

MSLRRHIGNPEYLMKRIPQNPRYQHIKSRLDTGNSMTKYTEKLEEIKKNYRYKKDELFKRLKVTTFAQLIIQVASLSDQTLEVTAEEIQRLEDNDSAASDPDAETTARTNGKGNPGEQSPSPEQFINNAGAGDSSRSTLQSVISGVGELDLDKGPVKKAEPHTKDKPYPDCPFLLLDVRDRDSYQQCHIVGAYSYPIATLSRTMNPYSNDILEYKNAHGKIIILYDDDERLASQAATTMCERGFENLFMLSGGLKVLAQKFPEGLITGSLPASCQQALPPGSARKRSSPKGPPLPAENKWRFTPEDLKKIEYYLEEEQGPADHPSRLNQANSSGRESKVPGARSAQNLPGGGPASHSNPRSLSSGHLQGKPWK [CEP41]
solubility in G1/S (log2) [1]: 0.311
solubility change mitosis (log2) [2]: 0.231

MSMTLGYWDIRGLAHAIRLLLEYTDSSYEEKKYTMGDAPDYDRSQWLNEKFKLGLDFPNLPYLIDGAHKITQSNAILCYIARKHNLCGETEEEKIRVDILENQAMDVSNQLARVCYSPDFEKLKPEYLEELPTMMQHFSQFLGKRPWFVGDKITFVDFLAYDVLDLHRIFEPNCLDAFPNLKDFISRFEGLEKISAYMKSSRFLPKPLYTRVAVWGNK [GSTM4]
solubility in G1/S (log2) [1]: -0.0869
solubility change mitosis (log2) [2]: -0.101

MSNGYSTDENFRYLISCFRARVKMYIQVEPVLDYLTFLPAEVKEQIQRTVATSGNMQAVELLLSTLEKGVWHLGWTREFVEALRRTGSPLAARYMNPELTDLPSPSFENAHDEYLQLLNLLQPTLVDKLLVRDVLDKCMEEELLTIEDRNRIAAAENNGNESGVRELLKRIVQKENWFSAFLNVLRQTGNNELVQELTGSDCSESNAEIENLSQVDGPQVEEQLLSTTVQPNLEKEVWGMENNSSESSFADSSVVSESDTSLAEGSVSCLDESLGHNSNMGSDSGTMGSDSDEENVAARASPEPELQLRPYQMEVAQPALEGKNIIICLPTGSGKTRVAVYIAKDHLDKKKKASEPGKVIVLVNKVLLVEQLFRKEFQPFLKKWYRVIGLSGDTQLKISFPEVVKSCDIIISTAQILENSLLNLENGEDAGVQLSDFSLIIIDECHHTNKEAVYNNIMRHYLMQKLKNNRLKKENKPVIPLPQILGLTASPGVGGATKQAKAEEHILKLCANLDAFTIKTVKENLDQLKNQIQEPCKKFAIADATREDPFKEKLLEIMTRIQTYCQMSPMSDFGTQPYEQWAIQMEKKAAKEGNRKERVCAEHLRKYNEALQINDTIRMIDAYTHLETFYNEEKDKKFAVIEDDSDEGGDDEYCDGDEDEDDLKKPLKLDETDRFLMTLFFENNKMLKRLAENPEYENEKLTKLRNTIMEQYTRTEESARGIIFTKTRQSAYALSQWITENEKFAEVGVKAHHLIGAGHSSEFKPMTQNEQKEVISKFRTGKINLLIATTVAEEGLDIKECNIVIRYGLVTNEIAMVQARGRARADESTYVLVAHSGSGVIEHETVNDFREKMMYKAIHCVQNMKPEEYAHKILELQMQSIMEKKMKTKRNIAKHYKNNPSLITFLCKNCSVLACSGEDIHVIEKMHHVNMTPEFKELYIVRENKALQKKCADYQINGEIICKCGQAWGTMMVHKGLDLPCLKIRNFVVVFKNNSTKKQYKKWVELPITFPNLDYSECCLFSDED [IFIH1]
solubility in G1/S (log2) [1]: -0.109
solubility change mitosis (log2) [2]: -0.0235

MSNNLRRVFLKPAEENSGNASRCVSGCMYQVVQTIGSDGKNLLQLLPIPKSSGNLIPLVQSSVMSDALKGNTGKPVQVTFQTQISSSSTSASVQLPIFQPASSSNYFLTRTVDTSEKGRVTSVGTGNFSSSVSKVQSHGVKIDGLTMQTFAVPPSTQKDSSFIVVNTQSLPVTVKSPVLPSGHHLQIPAHAEVKSVPASSLPPSVQQKILATATTSTSGMVEASQMPTVIYVSPVNTVKNVVTKNFQNIYPKPVTEIAKPVILNTTQIPKNVATETQLKGGQHSQAAPVKWIFQDNLQPFTPSLVPVKSSNNVASKILKTFVDRKNLGDNTINMPPLSTIDPSGTRSKNMPIKDNALVMFNGKVYLLAKKGTDVLPSQIDQQNSVSPDTPVRKDTLQTVSSSPVTEISREVVNIVLAKSKSSQMETKSLSNTQLASMANLRAEKNKVEKPSPSTTNPHMNQSSNYLKQSKTLFTNPIFPVGFSTGHNAPRKVTAVIYARKGSVLQSIEKISSSVDATTVTSQQCVFRDQEPKIHNEMASTSDKGAQGRNDKKDSQGRSNKALHLKSDAEFKKIFGLTKDLRVCLTRIPDHLTSGEGFDSFSSLVKSGTYKETEFMVKEGERKQQNFDKKRKAKTNKKMDHIKKRKTENAYNAIINGEANVTGSQLLSSILPTSDVSQHNILTSHSKTRQEKRTEMEYYTHEKQEKGTLNSNAAYEQSHFFNKNYTEDIFPVTPPELEETIRDEKIRRLKQVLREKEAALEEMRKKMHQK [LRIF1]
solubility in G1/S (log2) [1]: -0.92
solubility change mitosis (log2) [2]: 0.89

— the supplement of paper PMC5998384
